# Reference: article doi:10.1101/2025.09.11.675134, “Biodistribution-Driven Discovery Identifies a Glycosidase-Cleavable Linker to Reprogram Radiotheranostics” (bioRxiv, 2025)
# Like-named read-outs stand apart in the source and are kept apart here.
# Columns and labels:
# [1] = Histopathology (H&E) after two-cycle therapy; type: in vivo, athymic nu/nu mice; details: mouse, in vivo
# Procedure: To further assess tissue-level toxicity at the conclusion of the two-cycle therapy study, kidneys, livers, spleens, and tumors from representative mice were collected and evaluated histologically using hematoxylin and eosin (H&E) staining. Microscopic pathology was assessed and recorded in the MHL Pathology Database (Zaphod) according to a standardized five-point grading scale (normal, minimal, mild, moderate, marked). Terminology and criteria for pathological findings were consistent with the INHAND (International Harmonization of Nomenclature and Diagnostic Criteria) guidelines developed by the Society of Toxicologic Pathology.
# At the conclusion of the two-cycle therapy study, kidneys, livers, spleens, and tumors from representative mice were collected and processed for histological evaluation using hematoxylin and eosin (H&E) staining. Microscopic pathology was assessed and recorded in the MHL Pathology Database (Zaphod) using a standardized five-point ordinal grading system (normal, minimal, mild, moderate, marked). Terminology and diagnostic criteria were consistent with the International Harmonization of Nomenclature and Diagnostic Criteria (INHAND) guidelines established by the Society of Toxicologic Pathology (https://www.toxpath.org/inhand.asp)([57]).
# [2] = Ex vivo biodistribution of 225Ac-labeled variants in AR42J tumor-bearing mice; details: athymic nu/nu, mouse, total radioactivity; for tissue uptake at 24 h: 24 h post-injection
# Procedure: Prior to conducting targeted alpha-particle therapy studies using three ^225Ac-labeled variants (Fig. S17) in AR42J xenograft-bearing mice, we first assessed their in vivo pharmacokinetics through ex vivo biodistribution studies at 24 h post-injection (Fig. 5A; Tables S4). […]
# For studies involving three variants (DOTA -TATE, DOTA-MVK(ε)-TATE, and DOTA-β-Gal-TATE), AR42J cells (5 × 10^6 cells per mouse) were subcutaneously inoculated into the right shoulder of the mice. Tumors were allowed to grow for 3 weeks, reaching a volume of 100 –200 mm³ before being used in subsequent experiments. […]
# All samples […]
# were weighed and counted on a gamma counter (2480 Wizard 3, Perkin Elmer Inc., Waltham, MA, USA). Results are presented as percentage of injected activity per gram (%IA/g) and mean values ± standard deviations. […]
# Prior to conducting alpha particle therapy, biodistribution studies with 225Ac-labeled DOTA - TATE variants (117 – 163 kBq, 1 μg) were performed at 24 hours and 4 days post -injection in athymic nu/nu mice bearing AR42J tumors (n = 4 – 5). Mice were euthanized by CO 2 asphyxiation, and 10 tissues, including tumors, were collected. All samples were weighed and counted on a gamma counter after equilibration for 12 hours. Results are presented as %IA/g and mean values ± standard deviations.
# AR42J xenografts = experiment: Dosimetry estimates of 225Ac-labeled variants from biodistribution data; type: in vivo, athymic nu/nu mice; details: mouse, in vivo
# From the text: To evaluate the organ-level radiation absorbed dose resulting from different DOTA-TATE derivatives, we calculated the total effective dose per unit of injected activity (Eff Dose/IA, mSv/MBq) for ^225Ac-labeled variants based on biodistribution data in AR42J xenograft-bearing mice (Tables S5).
# Estimated absorbed doses for individual organs for ^225Ac- and ^86Y-labeled DOTA-TATE variants were derived from residence times calculated using %IA/g data from biodistribution studies. The time–activity curves incorporated data from both radionuclides to provide complete coverage of early and late time points. Details of the dosimetry methodology, including time–activity curve construction, integration approach, decay assumptions, and conversion to effective dose, are provided in the Supplementary Information.
# Dosimetry: The dosimetry was calculated by measuring the residence time per gram for each organ using the percent injected activity per gram (%IA/g) data collected for the biodistribution study. Because two biodistribution data sample groups were collected, one for the 86Y and the other for the 225Ac variant of the three DOTA-TATE variants (DOTA-TATE, DOTA-MVK(ε)- TATE, and DOTA-β-Gal-TATE) the %IA/g time activity curves (TAC) of the 86Y variant were merged with the 225Ac TACs. This was possible because of the difference in half lives between 86Y and 225Ac being 14.74 and 237.8 hours respectively setting the measurement time points to be 1, 4 and 24 hours for the 86Y ligands and 24, 96 hours for 225Ac. The full time activity curve is thus made up of the 1 and 4 hour time points of the 86Y %IA/g data points, an average of the common 24 hour time point of the 86Y and 225Ac %IA/g data points and the last 96 hour %IA/g time point of the 225Ac samples. The full 4 time points of 1, 4, 24, and 96 hours making up the […]
# from which the residence times were calculated.
# The integration of the TAC was performed using trapezoidal interpolation between time points.
# The first time point assumed constant activity and a decay curve with the half life of the radioisotope was used to estimate activity beyond 96 hours. The average %IA/g was used for each tissue sample for each time point and the resulting standard deviation of the average was then used as the error estimate per time point to propagate through the residence time calculation.
# Using the residence time for each TAC, the dose was calculated by looking up the dose per decay for each alpha, beta (positron and electron from nuclear beta decay) and electron emission listed in the nuclear data sheets provided by the Brookhaven National Laboratory National Nuclear Data Center. Since the 225Ac decays via a complicated decay chain, it is assumed that the dose from the daughters remains in the tissue assuming no biological dissemination once the 225Ac decays breaking the bonds of the DOTA-TATE ligand. The following mean dose per decay were used. For 225Ac, 27.58MeV/Bq-s for alpha emissions, 1.33MeV/Bq-s for beta plus electron emissions. For 86Y, 0.219 MeV/Bq-s for beta and electron emissions. Gamma emissions were ignored because of the small size of the tissue samples have small gamma absorption effects which would contribute negligibly to the dose calculation. Furthermore, dosimetry estimate […]
# inter organ activity can be calculated(62).
# To estimate the effective dose in mSv/MBq, a radiological factor of 5 was used to multiply the dose calculated from the alpha ionizations while a factor of 1 was used for the beta and electron ionizations to convert from mGy/MBq to mSv/MBq (63, 64).
smiles,measurement,setting,value
"CSCC[C@H](NC(=O)CN1CCN(CC(=O)O)CCN(CC(=O)O)CCN(CC(=O)O)CC1)C(=O)N[C@H](C(=O)N[C@@H](CCCCNC(=O)CCCC(=O)N[C@H](Cc1ccccc1)C(=O)N[C@H]1CSSC[C@@H](C(=O)N[C@H](C(=O)O)[C@@H](C)O)NC(=O)[C@H]([C@@H](C)O)NC(=O)[C@H](CCCCN)NC(=O)[C@@H](Cc2c[nH]c3ccccc23)NC(=O)[C@H](Cc2ccc(O)cc2)NC1=O)C(=O)O)C(C)C [^225Ac-DOTA-MVK(ε)-TATE, metal not drawn]","Glomerulopathy, percentage of mice with grade 0",[1],50%
same,"Glomerulopathy, percentage of mice with grade 1+",[1],50%
same,"Mice with mild, focal hepatocyte injury",[1],1 of 6
same,"Tubular damage, percentage of mice with grade 0",[1],67%
same,"Tubular damage, percentage of mice with grade 1+",[1],17%
same,"Tubular damage, percentage of mice with grade 3+",[1],17%
same,tissue uptake at 24 h,"[2]; iv, 1 ug, 225Ac-labeled, AR42J tumor-bearing mice, ex vivo, mean (± SD), n = 4–5, read-out: Kidney uptake",1.27 ± 0.25 %ID/g
same,tissue uptake at 24 h,"[2]; iv, 1 ug, 225Ac-labeled, AR42J tumor-bearing mice, ex vivo, mean (± SD), n = 4–5, read-out: Liver uptake",0.61 ± 0.06 %ID/g
same,tissue uptake at 24 h,"[2]; iv, 1 ug, 225Ac-labeled, AR42J tumor-bearing mice, ex vivo, mean (± SD), n = 4–5, read-out: Tumor uptake",3.83 ± 0.51 %ID/g
same,tissue uptake at 24 h,"[2]; iv, 1 ug, 225Ac-labeled, AR42J tumor-bearing mice, ex vivo, mean, n = 4–5, read-out: Femur uptake",0.33 %ID/g
same,tissue uptake at 24 h,"[2]; iv, 1 ug, 225Ac-labeled, AR42J tumor-bearing mice, ex vivo, mean, n = 4–5, read-out: Intestine uptake",0.11 %ID/g
same,tissue uptake at 24 h,"[2]; iv, 1 ug, 225Ac-labeled, AR42J tumor-bearing mice, ex vivo, mean, n = 4–5, read-out: Spleen uptake",0.32 %ID/g
same,tissue uptake at 24 h,"[2]; iv, 1 ug, 225Ac-labeled, AR42J tumor-bearing mice, i.v. 1 μg (117–163 kBq), ex vivo gamma counting, mean, n = 4–5, read-out: Blood uptake",0.03 %ID/g
same,tissue uptake at 96 h,"[2]; iv, 1 ug, 225Ac-labeled, AR42J tumor-bearing mice, 4 days post-injection, ex vivo, mean, n = 4–5, read-out: Blood uptake",0.03 %ID/g
same,tissue uptake at 96 h,"[2]; iv, 1 ug, 225Ac-labeled, AR42J tumor-bearing mice, 4 days post-injection, ex vivo, mean, n = 4–5, read-out: Femur uptake",0.32 %ID/g
same,tissue uptake at 96 h,"[2]; iv, 1 ug, 225Ac-labeled, AR42J tumor-bearing mice, 4 days post-injection, ex vivo, mean, n = 4–5, read-out: Intestine uptake",0.07 %ID/g
same,tissue uptake at 96 h,"[2]; iv, 1 ug, 225Ac-labeled, AR42J tumor-bearing mice, 4 days post-injection, ex vivo, mean, n = 4–5, read-out: Kidney uptake",0.43 %ID/g
same,tissue uptake at 96 h,"[2]; iv, 1 ug, 225Ac-labeled, AR42J tumor-bearing mice, 4 days post-injection, ex vivo, mean, n = 4–5, read-out: Liver uptake",0.42 %ID/g
same,tissue uptake at 96 h,"[2]; iv, 1 ug, 225Ac-labeled, AR42J tumor-bearing mice, 4 days post-injection, ex vivo, mean, n = 4–5, read-out: Muscle uptake",0.15 %ID/g
same,tissue uptake at 96 h,"[2]; iv, 1 ug, 225Ac-labeled, AR42J tumor-bearing mice, 4 days post-injection, ex vivo, mean, n = 4–5, read-out: Spleen uptake",0.19 %ID/g
same,tissue to tissue ratio at 24 h,[2],3.05 ± 0.37
same,tissue to tissue ratio at 96 h,[2],5.72 ± 0.91
same,tissue uptake at 96 h,[2],2.41 ± 0.22 %ID/g
same,tissue uptake at 24 h,"[2]; 225Ac-labeled, AR42J tumor-bearing mice, ex vivo, mean, n = 4–5, read-out: Heart uptake",0.08 %ID/g
same,tissue uptake at 24 h,"[2]; 225Ac-labeled, AR42J tumor-bearing mice, ex vivo, mean, n = 4–5, read-out: Lung uptake",0.14 %ID/g
same,tissue uptake at 24 h,"[2]; 225Ac-labeled, AR42J tumor-bearing mice, ex vivo, mean, n = 4–5, read-out: Muscle uptake",0.09 %ID/g
same,tissue uptake at 96 h,"[2]; 225Ac-labeled, AR42J tumor-bearing mice, 4 days post-injection, ex vivo, mean, n = 4–5, read-out: Heart uptake",0.12 %ID/g
same,tissue uptake at 96 h,"[2]; 225Ac-labeled, AR42J tumor-bearing mice, 4 days post-injection, ex vivo, mean, n = 4–5, read-out: Lung uptake",0.11 %ID/g
same,Absorbed dose to kidney,AR42J xenografts,5.7 Gy
same,Absorbed dose to tumor,AR42J xenografts,20.4 Gy
same,Reduction of kidney dose versus 225Ac-DOTA-TATE,AR42J xenografts,65 to 70%
same,"Total effective dose per injected activity, Blood",AR42J xenografts,3.44E+03 mSv/MBq
same,"Total effective dose per injected activity, Femur",AR42J xenografts,4.19E+04 mSv/MBq
same,"Total effective dose per injected activity, Heart",AR42J xenografts,1.06E+04 mSv/MBq
same,"Total effective dose per injected activity, Intestine",AR42J xenografts,2.36E+04 mSv/MBq
same,"Total effective dose per injected activity, Kidney",AR42J xenografts,1.85 × 10^5 mSv/MBq
same,"Total effective dose per injected activity, Liver",AR42J xenografts,1.02E+05 mSv/MBq
same,"Total effective dose per injected activity, Lung",AR42J xenografts,1.95E+04 mSv/MBq
same,"Total effective dose per injected activity, Muscle",AR42J xenografts,7.16E+03 mSv/MBq
same,"Total effective dose per injected activity, Spleen",AR42J xenografts,2.55E+04 mSv/MBq
same,"Total effective dose per injected activity, Tumor",AR42J xenografts,6.64 × 10^5 mSv/MBq
